*1 amine or outer side, *2 acyl side, *3 side chain or, on linkers, in order; H or OH if unused. Where a SMILES comes first, the peptide text is derived from it. Bridges are numbered along the chain shown (N, C = ends). Roman numbers before positions name the chains, in order. Where no end group is shown, it is not given here. [ ]: non-standard residue; d: D form. The star is where a group is joined. X1 = O=C(CCOCCOCCOCCOCCOCCOCCOCCOCCOCCOCCOCCOCCOCCOCCOCCOCCOCCOCCOCCOCCOCCC(=O)[*:2])[*:1]; X2 = CCNC(=O)CCOCCOCCOCCOCCOCCOCCOCCOCCOCCOCCOCCOCCOCCOCCOCCOCCOCCOCCOCCOCCOCCC(=O)*; CO(CH2CH2O)5CH2CH2CO = O=C(CCOCCOCCOCCOCCOCCC(=O)[*:2])[*:1]; Lys(Me2) = CN(C)CCCC[C@H](N)C(=O)O
What follows are molecules tested against T1, biotinylated recombinant human IL-17A (rhIL-17, R&D Systems #317-ILB) (human, UniProt Q16552 24-155, biotinylated) (assay: not given). Settings: both partners purified.
T1 construct: IL-17A, human, recombinant; also called Biotinylated IL-17A; source: bought: R&D Systems
T1 sequence (Q16552 24-155): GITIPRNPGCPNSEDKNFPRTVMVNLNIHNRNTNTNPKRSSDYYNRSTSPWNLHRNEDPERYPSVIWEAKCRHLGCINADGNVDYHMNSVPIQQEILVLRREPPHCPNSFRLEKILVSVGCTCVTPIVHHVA

| Molecule | IC50 |
| --- | --- |
| Ac-IVVTMPADLWDWIRK (not fully specified (C-terminus), analogue of peptide 2, K at position 15; made on Rink resin; a C-terminal amide is surmised; source: synthetic peptide) [peptide 3] | 0.066 µM |
| Ac-IVVTMPADLWDWIAA (not fully specified (C-terminus), analogue of peptide 2, A at position 14; made on Rink resin; a C-terminal amide is surmised; source: synthetic peptide) [peptide 4] | 0.172 µM |
| Ac-IVVTMPADLWDWARA (not fully specified (C-terminus), analogue of peptide 2, A at position 13; made on Rink resin; a C-terminal amide is surmised; source: synthetic peptide) [peptide 5] | 0.402 µM |
| Ac-IVVTMPADLWDAIRA (analogue of peptide 2, A at position 12; made on Rink resin; a C-terminal amide is surmised; also called W12A variant; source: synthetic peptide) [peptide 6] | 7.45 µM |
| Ac-IVVTMPADLWAWIRA (not fully specified (C-terminus), analogue of peptide 2, A at position 11; made on Rink resin; a C-terminal amide is surmised; source: synthetic peptide) [peptide 7] | 0.474 µM |
| Ac-IVVTMPADLADWIRA (not fully specified (C-terminus), analogue of peptide 2, A at position 10; made on Rink resin; a C-terminal amide is surmised; source: synthetic peptide) [peptide 8] | 0.524 µM |
| Ac-IVVTMPADAWDWIRA (not fully specified (C-terminus), analogue of peptide 2, A at position 9; made on Rink resin; a C-terminal amide is surmised; source: synthetic peptide) [peptide 9] | 0.64 µM |
| Ac-IVVTMPAALWDWIRA (not fully specified (C-terminus), analogue of peptide 2, A at position 8; made on Rink resin; a C-terminal amide is surmised; source: synthetic peptide) [peptide 10] | 4.02 µM |
| Ac-IVVTMAADLWDWIRA (not fully specified (C-terminus), analogue of peptide 2, A at position 6; made on Rink resin; a C-terminal amide is surmised; source: synthetic peptide) [peptide 12] | 2.65 µM |
| Ac-IVVTAPADLWDWIRA (not fully specified (C-terminus), analogue of peptide 2, A at position 5; made on Rink resin; a C-terminal amide is surmised; source: synthetic peptide) [peptide 13] | 0.011 µM |
| Ac-IVVAMPADLWDWIRA (not fully specified (C-terminus), analogue of peptide 2, A at position 4; made on Rink resin; a C-terminal amide is surmised; source: synthetic peptide) [peptide 14] | 0.195 µM |
| Ac-IVATMPADLWDWIRA (not fully specified (C-terminus), analogue of peptide 2, A at position 3; made on Rink resin; a C-terminal amide is surmised; source: synthetic peptide) [peptide 15] | 5.72 µM |
| Ac-IAVTMPADLWDWIRA (not fully specified (C-terminus), analogue of peptide 2, A at position 2; made on Rink resin; a C-terminal amide is surmised; source: synthetic peptide) [peptide 16] | 0.149 µM |
| Ac-AVVTMPADLWDWIRA (not fully specified (C-terminus), analogue of peptide 2, A at position 1; made on Rink resin; a C-terminal amide is surmised; source: synthetic peptide) [peptide 17] | 0.167 µM |
| Ac-IHVTMPADLWDWIRA (not fully specified (C-terminus), analogue of peptide 2, H at position 2; made on Rink resin; a C-terminal amide is surmised; also called V2H; source: synthetic peptide) [peptide 18] | 0.045 µM |
| Ac-IQVTMPADLWDWIRA (not fully specified (C-terminus), analogue of peptide 2, Q at position 2; made on Rink resin; a C-terminal amide is surmised; source: synthetic peptide) [peptide 19] | 0.071 µM |
| Ac-IRVTMPADLWDWIRA (not fully specified (C-terminus), analogue of peptide 2, R at position 2; made on Rink resin; a C-terminal amide is surmised; source: synthetic peptide) [peptide 20] | 0.117 µM |
| Ac-ITVTMPADLWDWIRA (not fully specified (C-terminus), analogue of peptide 2, T at position 2; made on Rink resin; a C-terminal amide is surmised; also called V2T; source: synthetic peptide) [peptide 21] | 0.031 µM |
| Ac-IWVTMPADLWDWIRA (not fully specified (C-terminus), analogue of peptide 2, W at position 2; made on Rink resin; a C-terminal amide is surmised; source: synthetic peptide) [peptide 22] | 0.522 µM |
| Ac-IYVTMPADLWDWIRA (not fully specified (C-terminus), analogue of peptide 2, Y at position 2; made on Rink resin; a C-terminal amide is surmised; source: synthetic peptide) [peptide 23] | 0.064 µM |
| Ac-IVVTMPADLWDWIMA (not fully specified (C-terminus), analogue of peptide 2, M at position 14; made on Rink resin; a C-terminal amide is surmised; source: synthetic peptide) [peptide 27] | 0.031 µM |
| Ac-IVVTMPADLWDWINA (not fully specified (C-terminus), analogue of peptide 2, N at position 14; made on Rink resin; a C-terminal amide is surmised; source: synthetic peptide) [peptide 28] | 0.026 µM |
| Ac-IVVTMPADLWDWIRA (not fully specified (C-terminus), analogue of peptide 1 with lysine to arginine at position 14; parent of the alanine scan; made on Rink resin; a C-terminal amide is surmised; source: synthetic peptide) [peptide 2] | 0.08 µM |

What follows are molecules tested against T2, human IL-17A (Homo sapiens, UniProt Q16552) (assay: BJ human fibroblast cell assay, IL-17A stimulated GRO-α production). Settings: BJ human fibroblast cells, 1 ng/ml human IL-17A.
T2 construct: host or cells: added to BJ human fibroblasts (ATCC CRL2522)
Assay type: cell-based
Excerpt: For inhibitor screen, human BJ fibroblast cells (ATCC CRL2522) (American Type Culture Collection, VA) were used. For mouse cell based assay MLE-12 mouse epithelial cells (ATCC CRL2110) were used. Both cell lines were maintained in ATCC recommended media.

T2 sequence (Q16552 24-155): as above

| Molecule | IC50 |
| --- | --- |
| CCNC(=O)CCOCCOCCOCCOCCOCCOCCOCCOCCOCCOCCOCCOCCOCCOCCOCCOCCOCCOCCOCCOCCOCCC(=O)NCCCC[C@H](NC(=O)[C@@H](NC(=O)[C@H](Cc1c[nH]c2ccccc12)NC(=O)[C@H](CC(=O)O)NC(=O)[C@H](Cc1c[nH]c2ccccc12)NC(=O)[C@H](CC(C)C)NC(=O)[C@H](CC(=O)O)NC(=O)[C@H](C)NC(=O)[C@@H]1CCCN1C(=O)[C@@H](NC(=O)[C@@H](NC(=O)[C@@H](NC(=O)[C@@H](NC(=O)[C@@H](NC(C)=O)[C@@H](C)CC)[C@@H](C)O)C(C)C)[C@@H](C)O)[C@@H](C)CC)[C@@H](C)CC)C(=O)N[C@@H](CCCCN(C)C)C(N)=O [Compound 48] (Ac-ITVTIPADLWDWIK(X2)[Lys(Me2)]-NH2) | 0.021 µM |
| CC[C@H](C)[C@H](NC(C)=O)C(=O)N[C@H](C(=O)N[C@H](C(=O)N[C@H](C(=O)N[C@H](C(=O)N1CCC[C@H]1C(=O)N[C@@H](CCCCNC(=O)CCOCCOCCOCCOCCOCCC(=O)NCCCC[C@H](NC(=O)[C@@H]1CCCN1C(=O)[C@@H](NC(=O)[C@@H](NC(=O)[C@@H](NC(=O)[C@@H](NC(=O)[C@@H](NC(C)=O)[C@@H](C)CC)[C@@H](C)O)C(C)C)[C@@H](C)O)[C@@H](C)CC)C(=O)N[C@@H](CC(=O)O)C(=O)N[C@@H](CC(C)C)C(=O)N[C@@H](Cc1c[nH]c2ccccc12)C(=O)N[C@@H](CC(=O)O)C(=O)N[C@@H](Cc1c[nH]c2ccccc12)C(=O)N[C@H](C(=O)N[C@@H](CC(N)=O)C(=O)N[C@@H](CCCCN(C)C)C(N)=O)[C@@H](C)CC)C(=O)N[C@@H](CC(=O)O)C(=O)N[C@@H](CC(C)C)C(=O)N[C@@H](Cc1c[nH]c2ccccc12)C(=O)N[C@@H](CC(=O)O)C(=O)N[C@@H](Cc1c[nH]c2ccccc12)C(=O)N[C@H](C(=O)N[C@@H](CC(N)=O)C(=O)N[C@@H](CCCCN(C)C)C(N)=O)[C@@H](C)CC)[C@@H](C)CC)[C@@H](C)O)C(C)C)[C@@H](C)O [Compound 42] (I: Ac-ITVTIPKDLWDWIN[Lys(Me2)]-NH2 / II: Ac-ITVTIPKDLWDWIN[Lys(Me2)]-NH2; linker I:7-II:7 via CO(CH2CH2O)5CH2CH2CO) | 0.024 µM |
| CC[C@H](C)[C@H](NC(C)=O)C(=O)N[C@H](C(=O)N[C@H](C(=O)N[C@@H](CCCCNC(=O)CCOCCOCCOCCOCCOCCOCCOCCOCCOCCOCCOCCOCCOCCOCCOCCOCCOCCOCCOCCOCCOCCC(=O)NCCCC[C@H](NC(=O)[C@@H](NC(=O)[C@@H](NC(=O)[C@@H](NC(C)=O)[C@@H](C)CC)[C@@H](C)O)C(C)C)C(=O)N[C@H](C(=O)N1CCC[C@H]1C(=O)N[C@@H](C)C(=O)N[C@@H](CC(=O)O)C(=O)N[C@@H](CC(C)C)C(=O)N[C@@H](Cc1c[nH]c2ccccc12)C(=O)N[C@@H](CC(=O)O)C(=O)N[C@@H](Cc1c[nH]c2ccccc12)C(=O)N[C@H](C(=O)N[C@@H](CC(N)=O)C(=O)N[C@@H](CCCCN(C)C)C(N)=O)[C@@H](C)CC)[C@@H](C)CC)C(=O)N[C@H](C(=O)N1CCC[C@H]1C(=O)N[C@@H](C)C(=O)N[C@@H](CC(=O)O)C(=O)N[C@@H](CC(C)C)C(=O)N[C@@H](Cc1c[nH]c2ccccc12)C(=O)N[C@@H](CC(=O)O)C(=O)N[C@@H](Cc1c[nH]c2ccccc12)C(=O)N[C@H](C(=O)N[C@@H](CC(N)=O)C(=O)N[C@@H](CCCCN(C)C)C(N)=O)[C@@H](C)CC)[C@@H](C)CC)C(C)C)[C@@H](C)O [Compound 41] (I: Ac-ITVKIPADLWDWIN[Lys(Me2)]-NH2 / II: Ac-ITVKIPADLWDWIN[Lys(Me2)]-NH2; linker I:4-II:4 via X1) | 0.015 µM |
| CC[C@H](C)[C@H](NC(C)=O)C(=O)N[C@H](C(=O)N[C@H](C(=O)N[C@@H](CCCCNC(=O)CCOCCOCCOCCOCCOCCC(=O)NCCCC[C@H](NC(=O)[C@@H](NC(=O)[C@@H](NC(=O)[C@@H](NC(C)=O)[C@@H](C)CC)[C@@H](C)O)C(C)C)C(=O)N[C@H](C(=O)N1CCC[C@H]1C(=O)N[C@@H](C)C(=O)N[C@@H](CC(=O)O)C(=O)N[C@@H](CC(C)C)C(=O)N[C@@H](Cc1c[nH]c2ccccc12)C(=O)N[C@@H](CC(=O)O)C(=O)N[C@@H](Cc1c[nH]c2ccccc12)C(=O)N[C@H](C(=O)N[C@@H](CC(N)=O)C(=O)N[C@@H](CCCCN(C)C)C(N)=O)[C@@H](C)CC)[C@@H](C)CC)C(=O)N[C@H](C(=O)N1CCC[C@H]1C(=O)N[C@@H](C)C(=O)N[C@@H](CC(=O)O)C(=O)N[C@@H](CC(C)C)C(=O)N[C@@H](Cc1c[nH]c2ccccc12)C(=O)N[C@@H](CC(=O)O)C(=O)N[C@@H](Cc1c[nH]c2ccccc12)C(=O)N[C@H](C(=O)N[C@@H](CC(N)=O)C(=O)N[C@@H](CCCCN(C)C)C(N)=O)[C@@H](C)CC)[C@@H](C)CC)C(C)C)[C@@H](C)O [Compound 40] (I: Ac-ITVKIPADLWDWIN[Lys(Me2)]-NH2 / II: Ac-ITVKIPADLWDWIN[Lys(Me2)]-NH2; linker I:4-II:4 via CO(CH2CH2O)5CH2CH2CO) | 3.37 µM |
| CC[C@H](C)[C@H](NC(C)=O)C(=O)N[C@@H](Cc1c[nH]cn1)C(=O)N[C@H](C(=O)N[C@H](C(=O)N[C@H](C(=O)N1CCC[C@H]1C(=O)N[C@@H](C)C(=O)N[C@@H](CC(=O)O)C(=O)N[C@@H](CC(C)C)C(=O)N[C@@H](Cc1c[nH]c2ccccc12)C(=O)N[C@@H](CC(=O)O)C(=O)N[C@@H](Cc1c[nH]c2ccccc12)C(=O)N[C@H](C(=O)N[C@@H](CC(N)=O)C(N)=O)[C@@H](C)CC)[C@@H](C)CC)[C@@H](C)O)C(C)C [Compound 35] | 0.012 µM |

Reference: article PMC4869123 (Scientific Reports, 2016)
